In one assay the target is T1, γ-secretase (Drosophila melanogaster, UniProt O02194).
T1 construct: endogenous in cells; host or cells: Drosophila S2 cells
Nature of the assay: Luciferase reporter assay in S2 cells, pharmacological inhibition of γ-secretase activity by DAPT. The class given is cell-based. The note with it: for reporter activity without DAPT vs. with 10 μM DAPT: FIG. 8C. How it is done:
(§1) For transfection, mini- or midi-prepped plasmid DNA (Qiagen) for each construct was adjusted to a stock concentration 100 ng/μl using a nanophotometer (Implen). For individual transfections a total amount of 200 ng DNA per 96-well plate well was used and always contained 30 ng of lexAop>FLuc2 (test construct reporter) and Act5.1Cp>RLuc (transfection control reporter), respectively. Test constructs (X-NRS-LexA) and TEV protease plasmids were added at 1:1 ratio (equimolarly adjusted to lexAop>FLuc2) to the DNA mixes; each DNA mix was supplemented with empty pBSK-SK+ vector (Stratagene) to 200 ng. S2 cells were cultured in Schneider's Drosophila medium (Invitrogen, Cat. no. 21720-024). Cultures were maintained in an air incubator at 25° C. S2 cells were split and plated into individual wells of a 96-well plate at a concentration of 5×10^5/well on day 0. 24 hours after plating (day 1), cells were transfected with Lipofectamine 2000 (Invitrogen, #11668019) with the suitable 1:1 plasmid/reagent mixture according to manufacturer's instructions and incubated for 48 hours. When induction of the metallothionein-promoter was required, CuSO4 stock medium was added in each well of the experiment to a final concentration of 0.5 mM CuSO4 24 hrs after transfection (day 2).
Cells were lysed on day 3 (48 hrs after transfection) and luciferase measurements with the Dual-Glo luciferase assay system (Promega) were performed according to the manufacturer's protocol. In brief, the supernatant was removed from each well by aspiration and cells were incubated with 200 μl passive lysis buffer on a shaker at room temperature for 30 min. Lysates were analyzed in 96-well plates with a Victor2 plate reader luminometer (PerkinElmer). Firefly and Renilla luciferase luminescence signals were collected for 10 s. Relative luciferase activities were calculated for each sample individually as principally described in Potter et al. (ref. 23) according to the following formula:
(F/R)Empty=(Σi=1^nFEmpty^i/REmpty^i)/n,
where n=number of control samples; F=Firefly luciferase luminescence signal; R=Renilla luciferase luminescence signal; Empty=lexAop>FLuc2+Ac5.1p>RLuc+BSK-SK+. Each condition was executed at least in triplicate, the average and SEM were determined for each condition, and statistical significance was evaluated using Student's t test. Plasmids used for transfection in S2 cells were: N^ECN-LexA, N^EGF-LexA, ChiN-Test, pChiN1, pChiN2, pChiN3, lexAop-FLuc2, Ac5.1-RLuc, secTEVp, intraTEVp, pBSK-SK+.
(In general: A reporter such as luciferase makes a cellular process visible.)

The next assay concerns Drosophila melanogaster. Nature of the assay: In vivo expression analysis of genomically integrated cirl-NRS sensors (transcriptionally activated mCherry reporter). The note with it: adult animals; for sensor activity (lexAop-mCherry reporter expression): FIG. 11. The source says: To test the utility of the NRS sensor principle in vivo, an existing genomic engineering platform^13,35 was used to encode NRS sensors in alleles of the adhesion GPCR cirl/CG8639 of Drosophila melanogaster. This places CIRL-NRS expression under the endogenous regulatory control of the cirl locus (FIG. 10A). The NRS design was adapted to generate minigenes for cirl-NRS-LexA, cirl^H>A-NRS-LexA and cirl-NRS^S3-LexA by fusing the genomic fragment encoding the CIRL-ECR to the NRS-LexA cDNA (FIG. 10A,B). The resulting transgenes were inserted in the cirl gene using phiC31-assisted transformation generating fly stocks expressing the different sensors variants from the cirl locus.
Next, the functionality of CIRL-NRS was further studied in anatomical expression analyses.
To control for potential misexpression inherent to the LexA transcriptional reporter, additional cirl-NRS transgenes alternatively terminating in Ga/4 or QF2 transcription factor cassettes were generated an analysed.

In assay [1] the test system is lexAop-FLuc reporter in Drosophila Schneider 2 (S2) cells. The experiment in a line: Luciferase (lexAop-FLuc) reporter assay of NRS sensor constructs in S2 cells. In kind it is cell-based. As to conditions: FIG. 9; for reporter activity in luciferase assays: S2 cells.
Text: In order to conceptually establish the approach to fuse heterologous ECRs to the Notch^ITS to suppress its proteolytic activation, a sensor protein containing 4 immunoglobulin (Ig) domains of the human CD4 receptor fused to the Notch^ITS was engineered^28 (FIG. 7A).
As a positive control a constitutively active N^ECN-LexA receptor^34 with a constantly exposed S2 cleavage site was included (FIG. 7A,B).
Next, the extracellular CD4 repeats of the sensor protein were replaced with the ECR of an aGPCR, the Latrophilin/ADGRL-homolog CIRL/CG8639 (calcium independent receptor of α-latrotoxin) to enable the NRS to detect the physical dissociation of the NTF-CTF complex within the GAIN domain when appended to the Notch^ITS. Thus, the entire ECR of CIRL (including the GAIN domain, GPS, tethered agonist segment and predicted linker to the 7TM domain) was N-terminally fused to the NRS core (CIRL-NRS-LexA; FIG. 9). […] In order to distinguish between these two possibilities, we mutated the GPS of the sensor at the −2 position of its catalytic triad and replaced the conserved Histidin by an Alanine (FIG. 9) to block GAIN domain self-cleavage and eventual NTF release. […] This set of experiments establishes that the CIRL-NRS-LexA NRS can be used for monitoring the integrity of the NTF-CTF heterodimer clamped by the GAIN domain of CIRL.
as §1
Cells were lysed on day 3 (48 hrs after transfection) and luciferase measurements with the Dual-Glo luciferase assay system (Promega) were performed according to the manufacturer's protocol. […] Lysates were analyzed in 96-well plates with a Victor2 plate reader luminometer (PerkinElmer). Firefly and Renilla luciferase luminescence signals were collected for 10 s. Relative luciferase activities were calculated for each sample individually as principally described in Potter et al. (ref. 23) according to the following formula: […]
where n=number of control samples; F=Firefly luciferase luminescence signal; R=Renilla luciferase luminescence signal; Empty=lexAop>FLuc2+Ac5.1p>RLuc+BSK-SK+. Each condition was executed at least in triplicate, the average and SEM were determined for each condition, and statistical significance was evaluated using Student's t test. […]

We go through four molecules from US20240010704A1, “CHIMERIC SENSOR PROTEIN AND METHODS OF USE THEREOF” (Universitaet Leipzig, priority 2020, published 2024).

Substitutions are numbered along the chain they refer to.

T1 sequence (O02194 whole entry): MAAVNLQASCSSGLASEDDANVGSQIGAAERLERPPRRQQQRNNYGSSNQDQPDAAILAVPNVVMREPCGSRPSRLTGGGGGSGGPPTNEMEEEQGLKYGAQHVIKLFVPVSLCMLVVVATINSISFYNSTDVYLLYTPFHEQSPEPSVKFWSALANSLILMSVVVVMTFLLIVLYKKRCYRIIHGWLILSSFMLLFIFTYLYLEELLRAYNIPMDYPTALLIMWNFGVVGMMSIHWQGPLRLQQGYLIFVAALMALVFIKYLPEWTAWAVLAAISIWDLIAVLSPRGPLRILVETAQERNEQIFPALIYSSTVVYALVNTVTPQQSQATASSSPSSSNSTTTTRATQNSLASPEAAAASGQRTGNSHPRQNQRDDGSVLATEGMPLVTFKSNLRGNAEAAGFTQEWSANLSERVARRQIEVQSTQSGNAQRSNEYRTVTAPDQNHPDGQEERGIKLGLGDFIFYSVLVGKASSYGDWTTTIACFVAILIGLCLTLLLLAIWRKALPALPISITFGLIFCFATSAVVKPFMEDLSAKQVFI
T1 sequence (Q9VC27 23-695 partner): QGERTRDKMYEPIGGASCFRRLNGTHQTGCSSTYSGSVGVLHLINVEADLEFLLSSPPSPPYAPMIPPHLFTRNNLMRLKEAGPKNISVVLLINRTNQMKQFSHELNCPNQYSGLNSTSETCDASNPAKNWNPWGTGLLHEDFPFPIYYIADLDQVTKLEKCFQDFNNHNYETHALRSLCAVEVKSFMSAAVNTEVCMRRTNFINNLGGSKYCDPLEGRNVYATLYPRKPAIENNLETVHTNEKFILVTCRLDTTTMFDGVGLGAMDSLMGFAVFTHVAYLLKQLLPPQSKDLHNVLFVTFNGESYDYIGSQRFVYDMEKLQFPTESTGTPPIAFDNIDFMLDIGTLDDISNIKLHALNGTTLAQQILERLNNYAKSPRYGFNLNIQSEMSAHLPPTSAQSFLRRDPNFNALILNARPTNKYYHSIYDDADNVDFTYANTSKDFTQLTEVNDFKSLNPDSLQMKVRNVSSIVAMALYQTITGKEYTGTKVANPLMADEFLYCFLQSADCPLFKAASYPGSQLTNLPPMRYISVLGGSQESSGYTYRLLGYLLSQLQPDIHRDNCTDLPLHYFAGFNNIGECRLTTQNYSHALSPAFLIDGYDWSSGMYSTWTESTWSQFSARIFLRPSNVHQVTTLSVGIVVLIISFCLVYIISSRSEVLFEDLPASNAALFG
T1 sequence (Q9VQG2 whole entry partner): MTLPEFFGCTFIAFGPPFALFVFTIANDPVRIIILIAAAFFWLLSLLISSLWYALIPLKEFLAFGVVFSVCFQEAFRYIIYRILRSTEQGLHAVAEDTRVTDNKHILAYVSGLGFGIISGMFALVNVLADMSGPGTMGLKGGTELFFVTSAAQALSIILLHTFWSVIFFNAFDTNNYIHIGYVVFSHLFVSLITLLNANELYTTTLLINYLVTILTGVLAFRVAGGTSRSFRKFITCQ
T1 sequence (Q86BE9 whole entry partner): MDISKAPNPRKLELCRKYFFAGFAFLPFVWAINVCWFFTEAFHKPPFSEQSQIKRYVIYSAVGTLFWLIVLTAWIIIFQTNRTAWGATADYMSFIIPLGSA

`C[C@H](NC(=O)Cc1cc(F)cc(F)c1)C(=O)N[C@H](C(=O)OC(C)(C)C)c1ccccc1` [DAPT]: on γ-secretase (10 μM DAPT, S2 cells), the “effect on reporter activity” value is “abolished reporter activity”. In addition, the “reporter activity without DAPT vs. with 10 μM DAPT” value on γ-secretase (CD4-6TEVs-NRS-LexA construct) was determined as 3.6 ×; on γ-secretase (CD4-6TEVs-NRS-LexA+intraTEVp) it was 7.0 ×; at γ-secretase (CD4-6TEVs-NRS-LexA+secTEVp), 23.4 ×; on γ-secretase (Control), 1.1 ×; on γ-secretase (N^ECN-LexA construct), 43.7 ×; on γ-secretase (N^EGF-LexA construct) it was 5.8 ×.

B1: CIRL-NRS-LexA: entire ECR of CIRL N-terminally fused to the NRS core; full-length NTF release sensor for dmCIRL (protein)
chain: MKLCILLAVVAFVGLSLGETGFPKSLSVLNSRCAHKQSCGVLAATSMFGDPCPGTHKYLEAHYQCISAAQTSTTTNRPSPPPWVLSNGPPIFGNGSGLIHPPGVGAGAPPPPRLPTLPGVVGISGNPGLFNVPPQHTAVTHSTPSSSTTAVGGGRLKGGATSTTTTKHPAGRHDGLPPPPQLHHHHNHHGEDTASPTKPSSKLPAGGNATSPSNTRILTGVGGSGTDDGTLLTTKSSPNRPPGTAASGSVVPGNGSVVRTINNINLNAAGMSGGDDESKLFCGPTHARNLYWNMTRVGDVNVQPCPGGAAGIAKWRCVLMKRIPDSGYDEYDDDISSTTPAPSGGDCLHNSSSCEPPVSMAHKVNQRLRNFEPTWHPATPDLTQCRSLWLNNLEMRVNQRDSSLISIANDMSEVTSSKTLYGGDMLVTTKIIQTVSEKMMHDKETFPDQRQREAMIMELLHCVVKTGSNLLDESQLSSWLDLNPEDQMRVATSLLTGLEYNAFLLADTIIRERSVVQKVKNILLSVRVLETKTIQSSVVFPDSDQWPLSSDRIELPRAALIDNSEGGLVRIVFAAFDRLESILKPSYDHFDLKSSRSYAILSNDSDVNAGEIQQRLRILNSKVISASLGKGRHIQLSQPITLTLKHLKTENVTNPTCVFWNYIDHAWSANGCSLESTNRTHSVCSCNHLTNFAILMDVVDEHQHSLFTMFDGNMRPRIDTAAKHQLRNDFQIHSVRGIKNPGDEDNGEPPANVKYVITGIILVIIALAFFGMVLSTQRKRSGPPKLKALTARQQEVFDLIRDHISQTGMPPTRAEIAQRLGFRSPNAAEEHLKALARKGVIEIVSGASRGIRLLQEEEEGLPLVGRVAAGEPLLAQQHIEGHYQVDPSLFKPNADFLLRVSGMSMKDIGIMDGDLLAVHKTQDVRNGQVVVARIDDEVTVKRLKKQGNKVELLPENSEFKPIVVDLRQQSFTIEGLAVGVIRNGDWLEFPGIRRPAGIPGDLAPPTDVSLGDELHLDGEDVAMAHADALDDFDLDMLGDGDSPGPGFTPHDSAPYGALDMADFEFEQMFTDALGIDEYGGASRYLDPAFLYKVVSSATMDYKDHDGDYKDHDIDYKDDDDKHRST
modifications: Full-length NTF release sensor for dmCIRL used in Example 2
As to B1, the “sensor activity (lexAop-mCherry reporter expression)” value (from here on “sensor activity”) in the assay on Drosophila melanogaster is “strong expression in the eye, proboscis and leg neurons”. Besides, the “expression pattern with matching reporter transgenes” value in the assay with Drosophila melanogaster (FIG. 12) is “strong activation”. In assay [1], the “reporter activity in luciferase assays” value was “high activity”. Moreover, the results for the “luciferase reporter activity, fold difference” value in assay [1] (vs. Cirl-NRS^S3-LexA) and in assay [1] (vs. Cirl^H>A-NRS-LexA) were 23.7 × and 148.8 ×, respectively.

B2: CIRL-NRS^S3-LexA: NTF release sensor for dmCIRL, S3 cleavage site mutated (disabled γ-secretase recognition) (protein)
chain: B1 chain with V773K
modifications: Full-length NTF release sensor for dmCIRL (S3 cleavage site mutated)
Turning to B2, the “sensor activity” value with Drosophila melanogaster is reported as “completely abrogated”. Also, in assay [1], the “reporter activity in luciferase assays” value was “no reporter activity”.

B3: CIRL^H>A-NRS-LexA: NTF release sensor for dmCIRL, GPS cleavage site mutated (His to Ala at −2) (protein)
chain: B1 chain with H688A
modifications: Full-length NTF release sensor for dmCIRL (GPS cleavage site mutated)
B3: the “sensor activity” value with Drosophila melanogaster is “abrogated NRS activation”. For the same molecule, the “reporter activity in luciferase assays” value in assay [1] is reported as “no reporter activity”.
